From US10314925B2, “Thymidine kinase” (priority 2004, dated 2019)
Where a chain is given by its changes, count along the chain named.

B1: TkMut4 (nucleic acid)
DNA: ATGGCTTCGTACCCCTGCCATCAACACGCGTCTGCGTTCGACCAGGCTGCGCGTTCTCGCGGCCATAGCAACCGACGTACGGCGTTGCGCCCTCGCCGGCAGCAAGAAGCCACGGAAGTCCGCCTGGAGCAGAAAATGCCCACGCTACTGCGGGTTTATATAGACGGTCCTCACGGGATGGGGAAAACCACCACCACGCAACTGCTGGTGGCCCTGGGTTCGCGCGACGATATCGTCTACGTACCCGAGCCGATGACTTACTGGCAGGTGCTGGGGGCTTCCGAGACAATCGCGAACATCTACACCACACAACACCGCCTCGACCAGGGTGAGATATCGGCCGGGGACGCGGCGGTGGTAATGACAAGCGCCCAGATAACAATGGGCATGCCTTATGCCGTGACCGACGCCGTTCTGGCTCCTCATGTCGGGGGGGAGGCTGGGAGTTCACATGCCCCGCCCCCGGCCCTCACCCTCATCTTCGACCGCCATCCCATCGCCGCCCTCCTGTGCTACCCGGCCGCGCGATACCTTATGGGCAGCATGACCCCCCAAGCCGTGCTGGCGTTCGTGGCCCTCATCCCGCCGACCTTGCCCGGCACAAACATCGTGTTGGGGGCCCTTCCGGAGGACAGACACATCGACCGCCTGGCCAAACGCCAGCGCCCCGGCGAGCGGCTTGACCTGGCTATGCTGGCCGCGATTCGCCGCGTTTACGGGCTGCTTGCCAATACGGTGCGGTATCTGCAGGGCGGCGGGTCGTGGTGGGAGGATTGGGGACAGCTTTCGGGGACGGCCGTGCCGCCCCAGGGTGCCGAGCCCCAGAGCAACGCGGGCCCACGACCCCATATCGGGGACACGTTATTTACCCTGTTTCGGGCCCCCGAGTTGCTGGCCCCCAACGGCGACCTGTATAACGTGTTTGCCTGGGCCTTGGACGTCTTGGCCAAACGCCTCCGTCCCATGCACGTCTTTATCCTGGATTACGACCAATCGCCCGCCGGCTGCCGGGACGCCCTGCTGCAACTTACCTCCGGGATGGTCCAGACCCACGTCACCACCCCAGGCTCCATACCGACGATCTGCGACCTGGCGCGCACGTTTGCCCGGGAGATGGGGGAGGCTAACTGA
modifications: HSV-1 thymidine kinase mutant sequence.
B2: TkMut234 (nucleic acid)
DNA: B1 DNA with T330C, A541T, G542C
modifications: HSV-1 thymidine kinase mutant sequence.
B3: TkMut24 (nucleic acid)
DNA: B1 DNA with T330C
modifications: HSV-1 thymidine kinase mutant sequence.
B4: TkMut34 (nucleic acid)
DNA: B1 DNA with A541T, G542C
modifications: HSV-1 thymidine kinase mutant sequence.
B5: TkMut2 (nucleic acid)
DNA: B1 DNA with T330C, A555G
modifications: HSV-1 thymidine kinase mutant sequence.

Assays:
[1] = test system: circulating modified cells; conditions: six patients who developed GvHD and received ganciclovir; cited from earlier work
HSV-tk [2] = assay: RT-PCR of HSV-tk mutants, RNA from Am12 supernatants; design: species or system HSV-1; conditions: for lower band (spliced form): TKA1/TKB1 primers
Excerpt: After sequence confirmation of SFCMM-3 HSV-tk mutants (FIGS. 1A-1C), one plasmid clone of each type was used to transiently transfect E86 cells. SFCMM-3 and TK3 plasmids were used as controls. The supernatant was collected from the E86 cultures and used to stably transduce the amphotropic packaging cell line Am12 as described in Materials and Methods section of Example 2. The resulting cell populations were selected for ΔLNGFR expression.
RNA was extracted from the E86 as well as Am12 culture supernatants containing infectious retroviral particles. RT-PCR reactions were carried out on RNA from E86 and Am12 supernatants using TKA1 and TKB1 primers according to the protocol described in Materials and Methods section of Example 2.

HSV-tk [3] = assay: PCR of genomic DNA from transduced CEM A301 cells; type: cell-based, HSV-1
Experimental: (§1) CEM A301 cells were cultured in RPMI 1640 (Hyclone) supplemented with 10% FBS (Hyclone) and 2 mM glutamine. CEM A301 cells were infected with Am12 culture supernatant containing SFCMM-3 HSV-tk mutants 2 and 234. The day before transduction 5×10^5 cells/ml were cultured. Transduction was then performed by one centrifugation cycle of retroviral vector particles on cells. After the transduction phase, cells were collected and the percentage of actually transduced cells evaluated by FACS analysis. PBLs from three different donors were transduced (as described in Materials and Methods section of Example 2) with Am12 supernatant containing SFCMM-3 HSV-tk mutant 2 as well as SFCMM-3.
(§2) The transduced cells were then sorted for ΔLNGFR expression and expanded a few days in culture.
One pellet for PCR analysis was prepared from the transduced non selected cells as well as from transduced selected cells as described in Materials and Methods section of Example 2. Genomic DNA was extracted from pellet cells and PCR reaction was carried out with TKA1 and TKB1 or TKY1 and TKY2 or TKZ1 and TKZ2 primers (as indicated in the table below) in a 25 μl reaction mixture containing 100-500 ng of genomic DNA, 1×PCR Buffer with 1.5 mM of MgCl2 (Applied Biosystems), […] of each dNTPs, 300 nM of each primer, 1.25 Units of AmpliTaq Gold (Applied Biosystems). The PCR cycling profile consisted of a first denaturation step for 15 min at 94° C. followed by 40 cycles with denaturation for 30 s at 94° C., annealing for 50 s at 60° C. and extension for 1 min at 72° C., and one final extension step of 10 min at 72° C., […] Ten microliters of amplified product were analyzed by agarose gel electrophoresis.

HSV-tk [4] = assay: PCR of genomic DNA from transduced PBLs of three donors; type: cell-based, HSV-1; conditions: TKA1/TKB1 primers
Experimental: as §1, §2
One pellet for PCR analysis was prepared from the transduced non selected cells as well as from transduced selected cells as described in Materials and Methods section of Example 2. […] Ten microliters of amplified product were analyzed by agarose gel electrophoresis.

[5] = CEM A301, TKA1/TKB1 primers, before and after selection

Molecule	average decrease in absolute number of circulating modified cells [1]	spliced product compared to TK3 and SFCMM-3 (ethidium bromide signal) (HSV-tk [2])	lower band (spliced form) (HSV-tk [2])	additional bands (HSV-tk [2])	lower band (spliced form of HSV-tk gene) (HSV-tk [3]; [5])	lower band (spliced form of HSV-tk gene) (HSV-tk [3]; CEM A301, TKY1/TKY2 and TKZ1/TKZ2 primers)	lower band (spliced form of HSV-tk gene) (HSV-tk [4])
Nc1nc(O)c2ncn(COC(CO)CO)c2n1 [ganciclovir]	85%	–	–	–	–	–	–
B1	–	less represented	lower band is detected	–	–	–	–
B2	–	–	not detected	two very weak bands of approximately 100 and 200 bp are detected	No lower band is observed	–	–
B3	–	–	not detected	two very weak bands of approximately 100 and 200 bp are detected	–	–	–
B4	–	less represented	lower band is detected	–	–	–	–
B5	–	–	not detected	two very weak bands of approximately 100 and 200 bp are detected	No lower band is observed	No lower band is observed	No lower band is observed
